Legend:
[1] = biological target: human FcRn (FCGRT and beta-2 microglobulin) expressed on MDCK II cells (human) (UniProt P55899); assay: cell-based or functional assay
[2] = biological target: human FcRn complex (FCGRT and beta-2 microglobulin), recombinant, purified (human) (UniProt P55899); assay: SPR, protein L capture, pH 6, kinetic
[3] = biological target: murine FcRn complex (Fcgrt and beta-2 microglobulin), recombinant (mouse) (UniProt Q61559); assay: binding to mFcRn at pH 6.0 (FIG. 2D)
[4] = biological target: murine FcRn complex (Fcgrt and beta-2 microglobulin), recombinant (mouse) (UniProt Q61559); assay: binding to mFcRn at pH 7.4 (FIG. 2D)

Sequence of human FcRn complex (FCGRT and beta-2 microglobulin), recombinant, purified (human) (P55899 24-297 limits assumed, chain 1 of 2): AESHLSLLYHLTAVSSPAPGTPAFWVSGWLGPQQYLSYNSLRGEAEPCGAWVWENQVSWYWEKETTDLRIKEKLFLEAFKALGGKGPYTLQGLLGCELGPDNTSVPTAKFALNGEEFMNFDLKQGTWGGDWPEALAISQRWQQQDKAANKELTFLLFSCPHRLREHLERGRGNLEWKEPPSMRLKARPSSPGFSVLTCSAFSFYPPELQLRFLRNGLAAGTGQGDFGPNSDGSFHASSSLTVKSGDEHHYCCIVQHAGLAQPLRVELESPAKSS
Sequence of human FcRn complex (FCGRT and beta-2 microglobulin), recombinant, purified (human) (P61769 21-119 limits assumed, chain 2 of 2, further chain): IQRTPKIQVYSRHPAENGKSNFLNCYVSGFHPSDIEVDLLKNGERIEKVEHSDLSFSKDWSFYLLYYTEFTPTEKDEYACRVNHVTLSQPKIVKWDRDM
Sequence of murine FcRn complex (Fcgrt and beta-2 microglobulin), recombinant (mouse) (Q61559 22-297, one chain of several): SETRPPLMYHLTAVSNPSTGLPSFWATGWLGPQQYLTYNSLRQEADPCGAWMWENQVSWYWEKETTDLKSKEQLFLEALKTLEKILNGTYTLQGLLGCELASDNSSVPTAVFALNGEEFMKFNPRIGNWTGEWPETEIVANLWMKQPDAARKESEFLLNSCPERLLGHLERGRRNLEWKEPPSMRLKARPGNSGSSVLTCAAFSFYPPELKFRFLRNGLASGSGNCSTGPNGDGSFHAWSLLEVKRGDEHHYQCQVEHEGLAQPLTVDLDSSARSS
Sequence of human FcRn (FCGRT and beta-2 microglobulin) expressed on MDCK II cells (human) (P55899 24-365, chain 1 of 2): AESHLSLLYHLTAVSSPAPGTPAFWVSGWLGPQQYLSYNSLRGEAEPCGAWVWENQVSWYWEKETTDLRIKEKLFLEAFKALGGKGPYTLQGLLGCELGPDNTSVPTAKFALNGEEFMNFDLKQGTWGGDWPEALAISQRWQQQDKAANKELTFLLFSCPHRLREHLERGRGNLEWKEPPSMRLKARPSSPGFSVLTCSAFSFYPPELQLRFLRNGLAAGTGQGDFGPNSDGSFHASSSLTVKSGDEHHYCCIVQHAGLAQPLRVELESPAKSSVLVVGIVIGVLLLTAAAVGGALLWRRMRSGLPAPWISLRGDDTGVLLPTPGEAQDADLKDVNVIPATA
Sequence of human FcRn (FCGRT and beta-2 microglobulin) expressed on MDCK II cells (human) (P61769 21-119, chain 2 of 2, further chain): as the sequence (P61769 21-119 limits assumed, chain 2 of 2, further chain) above

hIgG1 antibody comprising modified Fc M252Y/S254T/T256E (YTE)
Transcytosis Normalized to WT (normalized to WT) [1]: 1.9 | Kd [2]: 154 nM | koff [2]: 0.0635 s⁻¹ | kon [2]: 414000 M⁻¹ s⁻¹ | fold improvement of binding over wild-type hIgG1 [3]: 10 fold | fold improvement of binding over wild-type hIgG1 [4]: 10 fold

— US20220033520A1
